These are literature values, as cited in patent US20140322315A1, “CYSTEAMINE AND/OR CYSTAMINE FOR TREATING ISCHEMIC INJURY” (The Regents of the University of California, priority 2011, published 2014).

This data set has as its system acute ischemic stroke.

B1: tPA: tissue plasminogen activator, FDA approved 1996 as therapy for acute ischemic stroke (protein, UniProt P00750 36-562, looked up)
Tissue-type plasminogen …: SYQVICRDEKTQMIYQQHQSWLRPVLRSNRVEYCWCNSGRAQCHSVPVKSCSEPRCFNGGTCQQALYFSDFVCQCPEGFAGKCCEIDTRATCYEDQGISYRGTWSTAESGAECTNWNSSALAQKPYSGRRPDAIRLGLGNHNYCRNPDRDSKPWCYVFKAGKYSSEFCSTPACSEGNSDCYFGNGSAYRGTHSLTESGASCLPWNSMILIGKVYTAQNPSAQALGLGKHNYCRNPDGDAKPWCHVLKNRRLTWEYCDVPSCSTCGLRQYSQPQFRIKGGLFADIASHPWQAAIFAKHRRSPGERFLCGGILISSCWILSAAHCFQERFPPHHLTVILGRTYRVVPGEEEQKFEVEKYIVHKEFDDDTYDNDIALLQLKSDSSRCAQESSVVRTVCLPPADLQLPDWTECELSGYGKHEALSPFYSERLKEAHVRLYPSSRCTSQHLLNRTVTDNMLCAGDTRSGGPQANLHDACQGDSGGPLVCLNDGRMTLVGIISWGLGCGQKDVPGVYTKVTNYLDWIRDNMRP
Take B1: for the setting “some, but not all, of the controlled trials in acute ischemic stroke”, the “improvement in clinical outcome” value is reported as 30-55%. For the same molecule, the “complete resolution of symptoms, share of the time” value (thrombolytic therapy with tPA) was “less than 40%”.
